Laboratory results as given in patent US20210277097A1.
Substitutions are numbered along the chain they refer to. Each block holds one binder with its values, some of them ahead of it.

What was measured:
[1] = target: T1, recombinant purified human RGM A (R&D Systems Cat#2459-RM) (human) (UniProt Q96B86); experiment: competition ELISA on coated hRGMA; competitor: biotinylated chimeric 5F9
T1 sequence: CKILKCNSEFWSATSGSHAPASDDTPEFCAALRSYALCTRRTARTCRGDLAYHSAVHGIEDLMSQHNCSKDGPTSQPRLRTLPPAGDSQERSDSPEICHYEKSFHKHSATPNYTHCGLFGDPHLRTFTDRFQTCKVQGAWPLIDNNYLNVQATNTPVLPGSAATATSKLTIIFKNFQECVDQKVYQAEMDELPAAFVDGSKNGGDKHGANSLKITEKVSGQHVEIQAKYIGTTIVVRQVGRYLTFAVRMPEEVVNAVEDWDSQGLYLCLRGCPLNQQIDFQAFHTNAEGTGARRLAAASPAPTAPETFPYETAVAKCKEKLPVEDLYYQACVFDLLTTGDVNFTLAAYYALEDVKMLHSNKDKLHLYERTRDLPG

[2] = target: rat RGM A expressed on BAF3 cells (rat); experiment: FACS on BAF3-ratRGMA stable cell line, unlabelled antibody, anti-rat IgG PE; unstained cells 4.71
[3] = target: T1, recombinant purified human RGM A (R&D Systems Cat#2459-RM) (human); experiment: direct ELISA: plate coated with hRGM A 2 µg/mL, biotinylated antibody in 1:5 dilutions, streptavidin-HRP, TMB, OD 450

IC50 [1]: > 10 mg/L
B1: h5F9.1 (antibody, human IgG1, V domains shown)
VH: EVQLVESGGGVVQPGRSLRLSCAASGFTFSNYGMNWVRQAPGKGLEWVAMIYYDSSEKHYADSVKGRFTISRDNSKNTLYLQMNSLRAEDTAVYYCARGTTPDYWGQGTMVTVSS
VL: DIVMTQTPLSLSVTPGQPASISCRSSQSLEYSDGYTFLEWYLQKPGQSPQLLIYEVSNRFSGVPDRFSGSGSGTDFTLKISRVEAEDVGVYYCFQATHDPLTFGQGTKLEIKR

IC50 [1]: > 10 mg/L
B2: h5F9.9 (antibody, human IgG1, V domains shown)
VH: B1 VH
VL: B1 VL with I2V, T7S, S12P, P15L

IC50 [1]: > 10 mg/L
B3: h5F9.11 (antibody, human IgG1, V domains shown)
VH: B1 VH with V11L, R16G, A49S, R98K
VL: B1 VL with I2V, T7S, S12P, P15L

IC50 [1]: > 10 mg/L
B4: h5F9.7 (antibody, human IgG1, V domains shown)
VH: B1 VH with V11L, R16G, A49S, R98K
VL: B1 VL with I2V, T7S, S12P, P15L, Y41F, L42Q, K44R, Q50R, L51R

IC50 [1]: > 10 mg/L
B5: h5F9.5 (antibody, human IgG1, V domains shown)
VH: B1 VH
VL: B1 VL with I2V, T7S, S12P, P15L, Y41F, L42Q, K44R, Q50R, L51R

IC50 [1]: > 10 mg/L
B6: h5F9.3 (antibody, human IgG1, V domains shown)
VH: B1 VH with V11L, R16G, A49S, R98K
VL: B1 VL

Median, FL2-H [2]: 5.37
EC50 (read off the curve) [3]: 0.2 mg/L
B7: rat anti-human RGM A monoclonal antibody 8D1 (antibody, V domains shown)
VH: EVQLQQSGPELVKPGTSVKMSCKTSGYTFTSYVMHWVKQKPGQGLEWIGYIIPYNDNTKYNEKFKGKATLTSDKSSSTAYMELSSLTSEDSAVYYCARRNEYYGSSFFDYWGQGTTLTVSS
VL: DIQMTQSPASLSASLEEIVTITCQASQDIDNYLAWYHQKPGKSPRLLIYGATNLADGVPSRFSGSRSGTQFSLKINRLQIEDLGIYYCLQGYIPPRTFGGGTKLELKR

Median, FL2-H [2]: 29.6
EC50 (read off the curve) [3]: 0.08 mg/L
B8: rat anti-human RGM A monoclonal antibody 5F9 (antibody, V domains shown)
VH: EVQLVESGGGLVQPGSSLKLSCVASGFTFSNYGMNWIRQAPKKGLEWIGMIYYDSSEKHYADSVKGRFTISRDNSKNTLYLEMNSLRSEDTAIYYCAKGTTPDYWGQGVMVTVSS
VL: DVVLTQTPVSLSVTLGDQASMSCRSSQSLEYSDGYTFLEWFLQKPGQSPQLLIYEVSNRFSGVPDRFIGSGSGTDFTLKISRVEPEDLGVYYCFQATHDPLTFGSGTKLEIKR

IC50 [1]: > 10 mg/L
B9: h5F9.12 (antibody, human IgG1, V domains shown)
VH: B1 VH with V11L, R16G, V37I, V48I, A49G, R98K
VL: B1 VL with I2V, T7S, S12P, P15L

IC50 [1]: > 10 mg/L
B10: h5F9.6 (antibody, human IgG1, V domains shown)
VH: B1 VH with V37I, V48I, A49G, R98K
VL: B1 VL with I2V, T7S, S12P, P15L, Y41F, L42Q, K44R, Q50R, L51R

IC50 [1]: > 10 mg/L
B11: h5F9.2 (antibody, human IgG1, V domains shown)
VH: B1 VH with V37I, V48I, A49G, R98K
VL: B1 VL

IC50 [1]: > 10 mg/L
B12: h5F9.10 (antibody, human IgG1, V domains shown)
VH: B1 VH with V37I, V48I, A49G, R98K
VL: B1 VL with I2V, T7S, S12P, P15L

IC50 [1]: > 10 mg/L
B13: h5F9.8 (antibody, human IgG1, V domains shown)
VH: B1 VH with V11L, R16G, V37I, V48I, A49G, R98K
VL: B1 VL with I2V, T7S, S12P, P15L, Y41F, L42Q, K44R, Q50R, L51R

IC50 [1]: > 2 mg/L
B14: h5F9.20 (antibody, human IgG1, V domains shown)
VH: B1 VH with V37I, V48I, A49G, R98K
VL: B1 VL with I2V, M4L, T7S, S12P, P15L, Y41F, L42Q, K44R, Q50R, L51R

IC50 [1]: > 2 mg/L
B15: h5F9.22 (antibody, human IgG1, V domains shown)
VH: B1 VH with V37I, V48I, A49G, R98K
VL: B1 VL with I2V, M4L, T7S, S12P, P15L

IC50 [1]: > 2 mg/L
B16: h5F9.26 (antibody, human IgG1, V domains shown)
VH: B1 VH with V11L, R16G, V37I, V48I, A49G, R98K
VL: B1 VL with I2V, M4L, T7S, S12P, P15L

IC50 [1]: > 10 mg/L
B17: h5F9.4 (antibody, human IgG1, V domains shown)
VH: B1 VH with V11L, R16G, V37I, V48I, A49G, R98K
VL: B1 VL
